The results in this text go back to article PMC5037138, “A Novel Class of Plant Type III Polyketide Synthase Involved in Orsellinic Acid Biosynthesis from Rhododendron dauricum” (Frontiers in Plant Science, 2016).

Holding throughout (experiment): HPLC product quantification, Hanes-Woolf
What all share (format): biochemical, Rhododendron dauricum

Substrate in data set [1]: CC(=O)SCCNC(=O)CCNC(=O)[C@H](O)C(C)(C)COP(=O)(O)OP(=O)(O)OC[C@H]1O[C@@H](n2cnc3c(N)ncnc32)[C@H](O)[C@@H]1OP(=O)(O)O
Particulars: orcinol formation (major product), 200 uM malonyl-CoA, 100 mM potassium phosphate pH 7.0, 30 C, no OAC. From the text: (§1) HPLC product quantification, Hanes-Woolf on ORS (orcinol synthase)

Substrate in data set [2]: CCCCCC(=O)SCCNC(=O)CCNC(=O)[C@H](O)C(C)(C)COP(=O)(O)OP(=O)(O)OC[C@H]1O[C@@H](n2cnc3c(N)ncnc32)[C@H](O)[C@@H]1OP(=O)(O)O
Particulars: 4-hydroxy-6-pentyl-2-pyrone formation, 200 uM malonyl-CoA, pH 7.0, 30 C.
Description: as §1

Substrate in data set [3]: CCCC(=O)SCCNC(=O)CCNC(=O)[C@H](O)C(C)(C)COP(=O)(O)OP(=O)(O)OC[C@H]1O[C@@H](n2cnc3c(N)ncnc32)[C@H](O)[C@@H]1OP(=O)(O)O
Particulars: 4-hydroxy-6-propyl-2-pyrone formation, 200 uM malonyl-CoA, pH 7.0, 30 C.
Description: as §1

Substrate in data set [4]: CC(C)(COP(=O)(O)OP(=O)(O)OC[C@H]1O[C@@H](n2cnc3c(N)ncnc32)[C@H](O)[C@@H]1OP(=O)(O)O)[C@@H](O)C(=O)NCCC(=O)NCCSC(=O)/C=C/c1ccc(O)cc1
Particulars: naringenin formation, 200 uM malonyl-CoA, pH 7.0, 30 C.

B1: ORS (orcinol synthase) (Rhododendron dauricum) (protein)
chain: MALVNHRENVKGRAQILAIGTANPKNCFRQVDYPDYYFRVTKSDHLIDLKAKFKRMCEKSMIEKRYMHVNEEILEQNPSMNHGGEKMVSSLDVRLDMEIMEIPKLAAEAATKAMDEWGQPKSRITHLVFHSTLGTVMPGVDYELIKLLGLNPSVKRFMLYHLGCYGGGTVLRLAKDLAENNPGSRVLVLCCEMMPSGFHGPPSLQHAHLDILTGHAIFGDGAGAVIVGCVDPSGGTNGVVERGVRRYEQPLFEIHSAYQTVLPDSKDAVGGRLREAGLIYYLSKRLSNDVSGKIDECCLAEAFSAAIKDNFEDWNSLFWIVHPAGRPILDKLDAKLGLNKEKLRASRNVLRDYGNMWSSSVLFVLDEMRKGSIAQRKTTTGEGFEWGVLLGFGPGVTVETVVLRSVPTAKLK
notes: full length, 412 residues (45,707 Da), N-terminal His6 tag kept (pQE80L), E. coli M15; ~48 kDa subunit; homodimer ~101 kDa
Usually Km stands for the substrate concentration at which the rate is half of its maximum. The kcat is the number of substrate molecules converted per active site and unit of time at saturation. As to B1, the figures for the Km in data set [1], in data set [2] and in data set [3] were 9.98 µM, 26.4 µM and 17.1 µM, respectively. The kcat in data set [1] is 0.0243 s⁻¹; in data set [2], 0.00482 s⁻¹; in data set [3], 0.00675 s⁻¹.

B2: CHS (R. dauricum chalcone synthase) (Rhododendron dauricum) (protein)
chain: MVTVEDVRKAQRAEGPATVMAIGTATPPNCVDQSTYPDFYFRITNSEHKAELKEKFQRMCDKSMIKKRYMYLTEEILKENPSVCEYMAPSLDARQDMVVVEVPKLGKEAATKAIKEWGQPKSKITHLVFCTTSGVDMPGADYQLTKLLGLRPSVKRLMMYQQGCFAGGTVLRLAKDLAENNKGARVLVVCSEITAVTFRGPSDTHLDSLVGQALFGDGAAAIIVGADPVPEVEKPLFELVSAAQTILPDSDGAIDGHLREVGLTFHLLKDVPGLISKNIEKALTEAFQPLGISDWNSIFWIAHPGGPAILDQVELKLSLKPEKLRATRHVLSEYGNMSSACVLFILDEMRRKSAEEGLKTTGEGLEWGVLFGFGPGLTVETVVLHSLCT
notes: full length, 389 residues (42,599 Da), N-terminal His6 tag kept (pQE80L), E. coli M15; ~45 kDa subunit; homodimer ~94 kDa
Regarding B2, in data set [4], the Km was 8.15 µM and the kcat was 0.0089 s⁻¹.
